25 sequences from the DeepSol protein solubility set can be followed below.

The data set is described as follows: soluble on expression in E. coli; label from the status in PepcDB or PDB records.
On to “MGSDKIHHHHHHMVSRRISEIPISKTMELDAKAKALIKKGEDVINLTAGEPDFPTPEPVVEEAVRFLQKGEVKYTDPRGIYELREGIAKRIGERYKKDISPDQVVVTNGAKQALFNAFMALLDPGDEVIVFSPVWVSYIPQIILAGGTVNVVETFMSKNFQPSLEEVEGLLVGKTKAVLINSPNNPTGVVYRREFLEGLVRLAKKRNFYIISDEVYDSLVYTDEFTSILDVSEGFDRIVYINGFSKSHSMTGWRVGYLISSEKVATAVSKIQSHTTSCINTVAQYAALKALEVDNSYMVQTFKERKNFVVERLKKMGVKFVEPEGAFYLFFKVRGDDVKFCERLLEEKKVALVPGSAFLKPGFVRLSFATSIERLTEALDRIEDFLNSR”, for which the “soluble on expression in E. coli” value is on record as “soluble”.

With “MSLNFTEDGTLPLLGSKDAKIAIIEFSDFQCPYCKRFTDSAFKQIKENYIDTGKVQYIARDFPLSFHAKAMGAAIAATCSLHQNSYWPMRDMLFSNVKDLGEELYQKAATDLSLNLEEFNKCMKDKSIANKVEQDLTLGKSLGIRGTPSFLIGRVENDQLIEPQIVVGAQRYAVFESLLEQLSNSDKAKEGHHHHHH”, the “soluble on expression in E. coli” value is on record as “soluble”. With “MNIQNPVLKGFNPDPSIVRAGDDYYIATSTFEWFPGVQIHHSKDLVHWHLVAHPLSTTEFLDMKGNPDSGGIWAPDLSYADGKFWLIYTDVKVVDGMWKDCHNYLTTAEDIKGPWSKPILLNGAGFDASLFHDPSGKKYLVNMYWDQRVYHHNFYGIALQEYSVAEEKLIGKPEIIYKGTDIAYTEGPHLYYINDMYYLMTAEGGTTYQHSETIARSKTIHGPYEIQPDYPLLSAWKEVHNPLQKCGHASLVETQNGQWYLAHLTGRPLPAPAGFPSREREQHAFCPLGRETAIQKIEWQDGWPVVVGGQQGSLEVEAPDLPQQEWAPTYEERDDFDKDTLNINFQTLRIPFSEHLGSLTARPGFLRLYGRESLQSKFTQAHIARRWQSFNFDAGTSVEFSPNSFQQMAGLTCYYNTENWSSIHVTWNEEKGRIIDLVTADNGTFSMPLAGAEIPIPDEVKTVHFKVSVRGRIYQYAYSFDGETFHTLPIELPSWKLSDDYVRGGGFFTGAFVGINAIDITGTALPADFDYFTYKELD”, the “soluble on expression in E. coli” value is given as “soluble”. Turning to “MEQNLKNIKISIIIPTLNEVGNIQQTIATTQPSVNIEVIVVDGGSQDDTVAIAQSLGVKVISSSPGRAVQMNTGAALAAGEILLFLHADTRLPVGFDEMIRAALQQPGVVAGAFALRIDADLAGLRWVEKGVYWRSHFFQMPYGDQAIFMTKAVFEKVGGFSELPIMEDFELMRRLKHIGKITVLGVAVITSGRRWLQRGVFQTTLINQVVIIAYLLGVAPAQLHSWYRQGKFFRIGGRLLEHHHHHH”, the “soluble on expression in E. coli” value is “soluble”. As for “SLGWFKTCSKQEDNDVCVVQNVVLAQNGQMITAVGLITVEGKVNRKLLQVSVPTARLIPPGVMMQIDGGKGQKLDYAVCLPDKCTAEVPLTDAMIASLKKGSEVVFTSINFRRAPNPIKIALSGFTGAYDGAAITQSQLAE”, the “soluble on expression in E. coli” value is “not soluble”.

For “MGLKVLLYDPDGEIAHFLEDIFEVTGHTLYPAGSEEEVFEYLKNEPEFFFLPFSLKEAWVNSLKERATIPIFFLFSEEEEERAKGLGIPEVNLVRVPFNPLELFERLGLLHKMKPKDFQEIGLFNTLVKSHLEEKGVKVKIKGSGGECLVNTYPVSLSCRLEELKELLKKRLRTGRR”, the “soluble on expression in E. coli” value is “not soluble”. Consider “MGSDKIHHHHHHMLPGIVVKPLKTFADERGFFTEIMRRDWDVFEDEILQANMSVTYPGIVRAWHKHERGQVDYFVCIGGAIKICAYDDETQELAEIVSTGKNLQVVRVPGHYWHGFKAIGVEPAVLVYFVSRLYDYENPDEVRRPWNDSTIVPAKINGREDDPRCGKPWDWFYPPHK”, for which the “soluble on expression in E. coli” value is listed as “not soluble”. Regarding “MRHFDIAITGAGLAGQIAAIALARAGRHVALIAPSSEKKDQRTTALMDQSIRFMDRLGLWSRIAPSAARLSTMQIIDGTDRLLRAPTVQFRSSEIGLDAFGWNIPNEALLGVLSEAVEQEHNITRLDTTAETIDIGNDRISVTIADGEVLSADFLIGADGRKSMVREAAGIGVKSWSYPQTAVVLNFSHSRPHGNVSTEFHTPTGPFTQVPLPDDRSSLVWVVTPQQAEELTALPLETLSLKVEERMQSMLGAVTVENSVQAWPLSSMTAHRFGKGRVALIGEAAHGFPPIGAQGLNLSLRDIIALTELLGAVSDRPIAADAGSSFDRKRRADVYSRTLSVDLLNRSLLSDFLPVQMARAAGLHVLSGIGTLRSMVMREGIEPGRGLKALPSLLFGSFKKAGLEHHHHHH”, the “soluble on expression in E. coli” value was “soluble”. Take “DWVIPPISSPENEKGPFPKNLVQIKSNKDKEGKVFYSITGQGADTPPVGVFIIERETGWLKVTEPLDRERIATYTLFSHAVSSNGNAVEDPMEILITVTDQNDNKPEFTQEVFKGSVMEGALPGTSVMEVTATDADDDVNTYNAAIAYTILSQDPELPDKNMFTINRNTGVISVVTTGLDRESFPTYTLVVQAADLQGEGLSTTATAVITVTD”: the “soluble on expression in E. coli” value is given as “soluble”. In the case of “MNSIRSSPAIGENRTVYIGSYDGKLYAFNPDGTLKWSYTTGNQITGSATIGADGTICIGSYDRRLYTINPDGTLKWSYTTGNQIFSSAAIGEDGTIYVGSRDNKLYALNPDGTLKWSYTTGNQIFSSAAIGEDLEHHHHHH”, the “soluble on expression in E. coli” value is listed as “not soluble”.

For the sequence “MTTSQMIADFTTLAIQAGGWMELDRLYLQNRLLSMIGEQELGEVDIRPVATPAADLAEQLCQVASANQLVKTEQQKEQFMVQLMDLLTPPPSVVNAFFAQHYAKEPQEATEYFYQLCQKNGTVIEQEEPVVFSTVYGDFLANKVHSEASKATLSAQSYPRCEWCMATEGYQGSQQFPATTNHRVIRMNLDGESWGFSFVKQAQYQQQGVIAFEKHQSAKRSIKTFQQLLKIVEVFPHYFAGIDADFEQNEHVYYQTGLQQFPLAEASISEYVELANYPLINAGMVNWPVETFRLEGPNASEVAQAANDIFEQWQMLKLPTDEIQIVARRKELLYVMDLIFSRPQAKPSLTLAEVQGLTTWNNQKTQALETVASAYQQRLKEASAFAETSEGKAAFLAMVAPVTH”, the “soluble on expression in E. coli” value was “not soluble”.

Regarding “MGHHHHHHSHMSHIFDASVLAPHIPSNLPDNFKVRPLAKDDFSKGYVDLLSQLTSVGNLDQEAFEKRFEAMRTSVPNYHIVVIEDSNSQKVVASASLVVEMKFIHGAGSRGRVEDVVVDTEMRRQKLGAVLLKTLVSLGKSLGVYKISLECVPELLPFYSQFGFQDDCNFMTQRF”, the “soluble on expression in E. coli” value was “not soluble”. For “MMEKNNEVIQTHPLVGWDISTVDSYDALMLRLHYQTPNKSEQEGTEVGQTLWLTTDVARQFISILEAGIAKIESGDFPVNEYRRH” the value was “not soluble”.

Take “MCIGVPGQVLAVGEDIHQLAQVEVCGIKRDVNIALICEGNPADLLGQWVLVHVGFAMSIIDEDEAKATLDALRQMDYDITSA”: the “soluble on expression in E. coli” value is listed as “not soluble”. As to “MGGGGHGGGITYKGVTVHTPKTWHTVTGKGLCAVMWFWILYRAKQDGPVVMGWRHPWDGHGDHGHGDHH”, the “soluble on expression in E. coli” value was “not soluble”.

Turning to “MPLVLDLARPVSEEELRRLSELNPGYQWERSPEGRLWVSPTGGESGRRSLQLAYQLARWNEERGLGVVFDSSTGFKFPDGSILSPDAAFVERGAWEALSEAEREGFPPLAPKAVFEVRSASQDPEELRAKMGIYLRNGVLLGVLVDPYARAVEVFRPGKPPLRLEGVERVSLDPELPGFALSLPPLW”, the “soluble on expression in E. coli” value is on record as “soluble”. Regarding “MGSDKIHHHHHHMKIDLIISADDIKEEKVKNKTAVVIDMLRATSVITTALNNGCKRVVPVLTVEEALKKVKEYGKDAILGGERKGLKIEGFDFSNSPMEYTEDVVKGKTLIMTTTNGTRAIKGSETARDILIGSVLNGEAVAEKIVELNNDVVIVNAGTYGEFSIDDFICSGYIINCVMDRMKKLELTDAATTAQYVYKTNEDIKGFVKYAKHYKRIMELGLKKDFEYCCKKDIVKLVPQYTNGEIL”, the “soluble on expression in E. coli” value is reported as “soluble”. As to “MIGNILVAHGMRKGNQNEALEEFIGTLLKDEQYYYELAFLESETQNLEIIMEKMIKQGITKFRIVPLLIFSAMHYISDIPQILKEMKARYPQIDSKMSAPLGTHPYMKTLVENRIAEEKVSEGSTKATIVIAHGNGSGRFTKAHDELKAFVKTLDSHHPVYARALYGTLAFKNDLDKISEQYDELVIVPLFLFDGRLVNKVKRLLGEMTLHSQLHITPSINFDPILRLIIRERLEALDILEHHHHHH”, the “soluble on expression in E. coli” value is reported as “soluble”. Consider “MRIGHGFDVHKFGENGSGPLIIGGVRIPYEKGLLAHSDGDVALHAATDALLGAAALGDIGKLFPDTDPAFKGADSRGLLREAYRRILAKGYKLGNLDITIIAQAPKMAPHIPQMRVNLAEDLQCHMDDINVKATTTEQLGFTGRGEGIACEAVVLLVNVEQG”, for which the “soluble on expression in E. coli” value is “not soluble”. “MREKFYEKYYYAKSDIEGQDGGVVTAFLKYLLENGKIDGAIVVGDECWKPVSLVVQNAEDLLKTAKSKYAISTLDALRKAGEMGLEKVALEHHHHHH”: the “soluble on expression in E. coli” value is listed as “not soluble”. With “MSLTDIRDHRDMLTVHHLNNSRSQRVLWLLEELDTPYEIKRYQRQPDMMAPKELRAVHPLGKSPVITDNGNTIAESGAIIEYIVGTYGNGRLIPPPNTPERLRYTYWLHYAEGSAMPPLLLKLLFSMMPQRAPALVRPLVKMVASGALTGFVDPQLKLHMDYWESELGKAAYFAGDEFTAADIQMSFPLEAAAARGGLDQRYPKAQAWLERIHARPAYNRALEKGGPYEIGKAEGHHHHHH”, the “soluble on expression in E. coli” value is given as “soluble”. In the case of “KVSKGLILYPGAKVEIESYAPLARKIAESGYEVVIVKMPLNLAILGTNKAQKVMDSYNNIEHWVIGGHSLGGVAASNFARDNKLIEGVVFLASYPMGDELKELGKKVISIWGSKDGVVNFKSLVESKQKLPDDTTYVEIEGGNHAQFGDYGKQKGDNDAIISQEKQLNITANSIIKFLKNIS”, the “soluble on expression in E. coli” value is recorded as “not soluble”. In the case of “MSLEKLKSTEFYASQIKHCFTIPSRTAKYKGLCFELAPEVYQGMEHENFYSHQADAINSLHQGENVIITTSTSSGKSLIYQLAAIDLLLKDPESTFMYIFPTKALAQDQKRAFKVILSKIPELKNAVVDTYDGDTEPEERAYIRKNARVIFTNPDMIHTSILPNHANWRHFLYHLKLVVVDELHIYKGLFGSHVALVMRRLLRLCHCFYENSGLQFISCSATLKSPVQHMKDMFGINEVTLIHEDGSPTGAKHLVVWNPPILPQHERKRENFIRESAKILVQLILNNVRTIAFCYVRRVCELLMKEVRNIFIETGREDLVTEVMSYRGGYSASDRRKIEREMFHGNLKAVISTNALELGIDIGGLDAVLMCGFPLSMANFHQQSGRAGRRNNDSLTLVVASDSPVDQHYVAHPESLLEVNNFESYQDLVLDEGHHHHHH”, the “soluble on expression in E. coli” value is recorded as “not soluble”. Regarding “MAHHHHHHMRTSRGFCMSMWDSPAFEHNPLSRYWKRMMKQNGETLTAQSIPRHIHGYIEASCPRTEGLVRWFPYKKEITVDGRYVPTISDAIYSYYFPRELNDDERVKYVAIKTGRSELEVAEEVFLMRKMKLFVAQLLRNKLRSRPLRMPEGVDYSGIERRYTLGISRVAQAMGMSMYGTQSYDPVIVYSPYCDIGDCIDCICTKQLRTATQYLLCEVAVHRGIARSRMTDVTSEPKEPLSHVEPCLFEFIKLRLAILALVAKQEHYVVDHLFDGGHRYGGCLIHLFPSPLDPEIIDHEVNHIELDLDLAQKWMKHYYDHYVAPRRSG”, the “soluble on expression in E. coli” value is given as “not soluble”. With “GSHMLITPRNIFRHELIGLSVRIARSVHRDIQGISGRVVDETRNTLRIEMDDGREITVPKGIAVFHFRTPQGELVEIDGRALVARPEERIKKKFRKP”, the “soluble on expression in E. coli” value is reported as “soluble”.
